In PMC6695792 (Molecules, 2019) one finds IC50 data, which are given here for one molecule.

No end group written: not given here. Where only a bound is given, the exact number is not on record here.

This test concerns the target hPD-L1 of the Cis-Bio HTRF assay kit (human, UniProt Q9NZQ7 19-238). As to the kind of experiment: AlphaScreen or HTRF; Cis-Bio kit, 5 nM hPD-L1 and 50 nM hPD-1, 20 µL, dilution series of the inhibitor up to 5 mM, 2 h at room temperature, duplicates, normalized Hill fit. To be noted: both partners purified. On the technique in general: Bead proximity is the source of the signal in Alpha formats.

B1: AUNP-12 peptide (peptide)
chain 1: SNTSESFKFRVTQLAPKAQIKE
chain 2: SNTSESF
modifications: also: bond at chain A 8 at chain B 7 to a chain's C-terminus via isopeptide
In turn, B1 returned an IC50 above 10 mM.

In general, IC50 refers to the midpoint of a concentration-inhibition curve. Lower therefore signals higher potency.
